Source: patent US20240376455

Assays:
Assay in all cases: cleavage_in_vitro
[1] = test system: T1, LPG10139 (Bacillus megaterium); conditions: PAM NNNNC
T1 sequence: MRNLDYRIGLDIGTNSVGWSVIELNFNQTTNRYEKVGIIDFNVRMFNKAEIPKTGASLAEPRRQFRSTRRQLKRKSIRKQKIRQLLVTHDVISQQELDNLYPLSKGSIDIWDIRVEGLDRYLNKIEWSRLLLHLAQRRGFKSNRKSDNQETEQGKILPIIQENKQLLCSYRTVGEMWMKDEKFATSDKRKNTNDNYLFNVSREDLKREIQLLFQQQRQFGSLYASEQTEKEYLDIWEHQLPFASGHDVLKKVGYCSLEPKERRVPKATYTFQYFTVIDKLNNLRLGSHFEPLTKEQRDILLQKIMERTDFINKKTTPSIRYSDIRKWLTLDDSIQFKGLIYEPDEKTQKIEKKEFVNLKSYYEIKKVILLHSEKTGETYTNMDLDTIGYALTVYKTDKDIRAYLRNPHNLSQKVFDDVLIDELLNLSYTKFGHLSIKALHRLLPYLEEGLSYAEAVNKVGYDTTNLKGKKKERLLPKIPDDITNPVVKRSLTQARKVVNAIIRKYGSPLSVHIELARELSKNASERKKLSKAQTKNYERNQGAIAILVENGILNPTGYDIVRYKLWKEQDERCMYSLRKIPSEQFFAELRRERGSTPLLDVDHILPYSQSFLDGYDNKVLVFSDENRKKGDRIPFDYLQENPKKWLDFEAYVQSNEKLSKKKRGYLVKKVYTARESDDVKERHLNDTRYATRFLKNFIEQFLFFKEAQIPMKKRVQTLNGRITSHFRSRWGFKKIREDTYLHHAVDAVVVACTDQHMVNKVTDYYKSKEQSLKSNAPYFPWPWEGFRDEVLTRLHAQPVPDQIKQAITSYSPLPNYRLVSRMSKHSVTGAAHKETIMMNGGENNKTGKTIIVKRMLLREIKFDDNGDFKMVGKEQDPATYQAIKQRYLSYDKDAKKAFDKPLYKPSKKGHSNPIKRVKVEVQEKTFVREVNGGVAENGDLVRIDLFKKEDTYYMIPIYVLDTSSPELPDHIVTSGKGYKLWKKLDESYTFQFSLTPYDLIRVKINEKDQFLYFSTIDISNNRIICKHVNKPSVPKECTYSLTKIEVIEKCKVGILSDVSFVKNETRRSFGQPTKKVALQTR

LPG10145 (undetermined) = test system: T2, LPG10145 (undetermined); conditions: PAM NNGG; 37C 120 min
T2 sequence: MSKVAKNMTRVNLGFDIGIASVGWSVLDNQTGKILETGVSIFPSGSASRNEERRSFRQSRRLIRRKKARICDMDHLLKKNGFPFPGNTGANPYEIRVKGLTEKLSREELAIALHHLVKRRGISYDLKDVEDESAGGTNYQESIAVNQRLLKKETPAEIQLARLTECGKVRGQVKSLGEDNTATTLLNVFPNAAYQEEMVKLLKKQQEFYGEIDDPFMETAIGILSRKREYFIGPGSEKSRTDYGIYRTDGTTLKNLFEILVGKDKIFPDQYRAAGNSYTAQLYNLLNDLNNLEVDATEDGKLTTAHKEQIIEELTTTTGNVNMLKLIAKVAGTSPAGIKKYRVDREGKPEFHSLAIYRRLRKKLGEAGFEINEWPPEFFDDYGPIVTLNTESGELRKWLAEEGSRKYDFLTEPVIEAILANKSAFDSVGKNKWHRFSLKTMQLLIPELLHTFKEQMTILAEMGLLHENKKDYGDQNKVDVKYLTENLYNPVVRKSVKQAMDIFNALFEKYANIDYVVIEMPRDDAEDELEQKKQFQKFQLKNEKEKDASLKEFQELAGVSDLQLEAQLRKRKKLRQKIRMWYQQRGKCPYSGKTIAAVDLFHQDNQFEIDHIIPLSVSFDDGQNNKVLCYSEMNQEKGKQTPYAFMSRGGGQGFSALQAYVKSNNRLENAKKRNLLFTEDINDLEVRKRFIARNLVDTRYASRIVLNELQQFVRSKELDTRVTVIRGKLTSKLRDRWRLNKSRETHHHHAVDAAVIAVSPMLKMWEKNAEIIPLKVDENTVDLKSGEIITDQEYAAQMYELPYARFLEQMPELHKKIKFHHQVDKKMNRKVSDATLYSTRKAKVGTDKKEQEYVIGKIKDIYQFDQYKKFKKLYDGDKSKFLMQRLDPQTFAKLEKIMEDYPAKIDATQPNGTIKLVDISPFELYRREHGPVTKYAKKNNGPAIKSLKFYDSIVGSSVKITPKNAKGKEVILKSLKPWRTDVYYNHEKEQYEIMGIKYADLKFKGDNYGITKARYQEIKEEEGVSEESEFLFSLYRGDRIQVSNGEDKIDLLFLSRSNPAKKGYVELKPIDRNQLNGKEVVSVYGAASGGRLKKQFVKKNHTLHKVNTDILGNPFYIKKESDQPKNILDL

LPG10150 (undetermined) = test system: T3, LPG10150 (undetermined); conditions: PAM SEQ ID 81
T3 sequence: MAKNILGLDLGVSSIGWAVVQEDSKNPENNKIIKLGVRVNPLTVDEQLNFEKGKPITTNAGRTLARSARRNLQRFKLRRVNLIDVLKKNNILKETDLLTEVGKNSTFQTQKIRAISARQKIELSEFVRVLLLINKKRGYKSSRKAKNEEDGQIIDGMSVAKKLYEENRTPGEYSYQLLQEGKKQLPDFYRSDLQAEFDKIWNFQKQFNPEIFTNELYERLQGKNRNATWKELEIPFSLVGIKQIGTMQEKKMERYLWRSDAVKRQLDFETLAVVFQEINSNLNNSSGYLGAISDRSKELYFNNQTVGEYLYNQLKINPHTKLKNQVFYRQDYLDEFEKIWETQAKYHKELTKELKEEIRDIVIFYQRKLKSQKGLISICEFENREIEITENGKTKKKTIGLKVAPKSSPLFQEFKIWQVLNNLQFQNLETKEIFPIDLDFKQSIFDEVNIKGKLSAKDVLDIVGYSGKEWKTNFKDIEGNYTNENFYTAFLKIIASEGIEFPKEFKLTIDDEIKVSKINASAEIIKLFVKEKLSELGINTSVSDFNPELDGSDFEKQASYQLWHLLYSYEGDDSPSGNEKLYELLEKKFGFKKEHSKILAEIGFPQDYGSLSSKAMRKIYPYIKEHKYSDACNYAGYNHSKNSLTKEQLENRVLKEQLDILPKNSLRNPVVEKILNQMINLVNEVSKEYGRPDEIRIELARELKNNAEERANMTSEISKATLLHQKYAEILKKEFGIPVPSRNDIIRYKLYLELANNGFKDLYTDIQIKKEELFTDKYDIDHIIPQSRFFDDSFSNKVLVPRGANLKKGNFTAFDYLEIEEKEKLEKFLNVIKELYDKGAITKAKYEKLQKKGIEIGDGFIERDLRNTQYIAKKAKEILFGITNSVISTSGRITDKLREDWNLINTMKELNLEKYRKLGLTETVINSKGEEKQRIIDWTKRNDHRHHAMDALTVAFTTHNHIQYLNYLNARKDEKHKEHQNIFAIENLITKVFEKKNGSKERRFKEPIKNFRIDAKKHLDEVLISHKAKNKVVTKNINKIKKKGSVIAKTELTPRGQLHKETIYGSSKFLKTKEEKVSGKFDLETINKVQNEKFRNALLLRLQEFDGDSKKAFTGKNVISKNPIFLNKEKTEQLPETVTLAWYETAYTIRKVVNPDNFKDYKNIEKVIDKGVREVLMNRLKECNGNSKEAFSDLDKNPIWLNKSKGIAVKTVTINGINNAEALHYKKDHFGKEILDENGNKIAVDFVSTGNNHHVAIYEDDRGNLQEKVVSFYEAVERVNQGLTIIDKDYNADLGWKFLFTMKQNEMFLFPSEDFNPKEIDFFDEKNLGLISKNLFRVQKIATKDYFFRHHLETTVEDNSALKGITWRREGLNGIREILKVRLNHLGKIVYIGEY

“GUCAUAGUCCCAUCAUAUCCAUUGAAAGCAAUGGAUAUGAUGUUUCUAUGAUAAGGGCUCUCUAAGAGAGACCUGUGGCGUUGGGGAUCGCCUGCCCGUUUCGACGGGUGUCUCCCCAUUU / GATATAGACGTTGTGGCTGTTGTAGTAGGACCTC / GAGGTCCTACTACAACAGCCACAACGTCTATATC [LPG10139 sgRNA L2 ; Library 2 target AGGACCTC]” showed an activity (% target strand cleaved) [1] of 7.3.
Work on “GUCAUAGUCCCAUCAUAUCCAUUGAAAGCAAUGGAUAUGAUGUUUCUAUGAUAAGGGCUCUCUAAGAGAGACCUGUGGCGUUGGGGAUCGCCUGCCCGUUUCGACGGGUGUCUCCCCAUUU / GGACAGCAGCTTCCTATATCTCGTACAGGACCTC / GAGGTCCTGTACGAGATATAGGAAGCTGCTGTCC [LPG10139 sgRNA L1 ; Library 1 target AGGACCTC]” yielded an activity (% target strand cleaved) [1] of 4.4.
“GUUAUUGUACUCUCAAGGAAUCAGAAAGACUGAUUCCUUGAGAAUCUACAAUAAUAAGGCUUUAUGCCGAAAUUCCCACUCUUAACGGAGUGGGUUUU / GATATAGACGTTGTGGCTGTTGTAGTACGGATTC / GAATCCGTACTACAACAGCCACAACGTCTATATC [LPG10145 sgRNA L2 ; Library 2 target ACGGATTC]” gave an activity (% target strand cleaved) (LPG10145 (undetermined)) of 100.
“GUUAUUGUACUCUCAAGGAAUCAGAAAGACUGAUUCCUUGAGAAUCUACAAUAAUAAGGCUUUAUGCCGAAAUUCCCACUCUUAACGGAGUGGGUUUU / GGACAGCAGCTTCCTATATCTCGTACACGGATTC / GAATCCGTGTACGAGATATAGGAAGCTGCTGTCC [LPG10145 sgRNA L1 ; Library 1 target ACGGATTC]” was tested, and the activity (% target strand cleaved) (LPG10145 (undetermined)) was 92.9.
“GUUGUGAAUUGCUUUAAAGAAAGCAAUUCACAAUAAGGAUUAUUCCGUUGUGAAAACAUCUAGCGCCUCGUCUAUCUACGGGGCAUUUU / GATATAGACGTTGTGGCTGTTGTAGTAGGACTTC / GAAGTCCTACTACAACAGCCACAACGTCTATATC [LPG10150 sgRNA L2 ; Library 2 target AGGACTTC]” showed an activity (% target strand cleaved) (LPG10150 (undetermined)) of 31.8.
In the case of “GUUGUGAAUUGCUUUAAAGAAAGCAAUUCACAAUAAGGAUUAUUCCGUUGUGAAAACAUCUAGCGCCUCGUCUAUCUACGGGGCAUUUU / GGACAGCAGCTTCCTATATCTCGTACAGGACCTC / GAGGTCCTGTACGAGATATAGGAAGCTGCTGTCC [LPG10150 sgRNA L1 ; Library 1 target AGGACCTC]”, the activity (% target strand cleaved) (LPG10150 (undetermined)) is reported as 1.4.
